Results as given in US20120171195A1.
One block for each substance: values may come before it.

Assays:
HLA-B*0801 (human) = HLA-B*0801 (human) (UniProt P01889); assay: Luminex beads; MAb 1/800; competitor IgG-free serum
HLA-B*1402 (human) = assay: as above
HLA-B*1801 (human) = assay: as above
HLA-B*2708 (human) = HLA-B*2708 (human) (UniProt P01889); assay: as above
HLA-B*3701 (human) = assay: as above
HLA-B*4002 (human) = HLA-B*4002 (human) (UniProt P01889); assay: as above
HLA-B*5101 (human) = assay: as above
HLA-B*5201 (human) = assay: as above
HLA-B*5801 (human) = assay: as above
HLA-Cw*1402 (human) = HLA-Cw*1402 (human) (UniProt P10321); assay: as above
HLA-Cw*1701 (human) = assay: as above
HLA-Cw*1802 (human) = HLA-Cw*1802 (human) (UniProt P10321); assay: as above
HLA-A*2501 (A25) (human) [1] = assay: Luminex single-antigen beads; MEM-E/02 1/600; serum Mi127 1/100
HLA-A*2901 (A29) (human) [2] = target: HLA-A*2901 (A29) (human) (UniProt P04439); assay: as above
HLA-A*3002 (A30) (human) = HLA-A*3002 (A30) (human) (UniProt P04439); assay: as above
HLA-A*3201 (A32) (human) [3] = assay: as above
HLA-B*2708 (B27) (human) [4] = target: HLA-B*2708 (B27) (human) (UniProt P01889); assay: as above
HLA-B*5901 (B59) (human) [5] = assay: as above
[6] = target: HLA-Cw*0401 (Cw4) (human); assay: as above
[7] = target: HLA-Cw*1701 (Cw17) (human); assay: as above
[8] = target: HLA-Cw*1802 (Cw18) (human) (UniProt P10321); assay: as above
HLA-A*2403 (A24) (human) = assay: Luminex single-antigen beads; rank of MEM-E/02 reactivity among HLA-Ia alleles
HLA-A*2501 (A25) (human) [9] = assay: as above
HLA-A*2601 (A26) (human) = assay: as above
HLA-A*2901 (A29) (human) [10] = target: HLA-A*2901 (A29) (human) (UniProt P04439); assay: as above
HLA-A*3201 (A32) (human) [11] = assay: as above
HLA-B*0801 (B8) (human) = HLA-B*0801 (B8) (human) (UniProt P01889); assay: as above
HLA-B*1401 (B64) (human) = HLA-B*1401 (B64) (human) (UniProt P01889); assay: as above
HLA-B*1513 (B77) (human) = assay: as above
HLA-B*1516 (B63) (human) = assay: as above
HLA-B*1801 (B18) (human) = assay: as above
HLA-B*2708 (B27) (human) [12] = target: HLA-B*2708 (B27) (human) (UniProt P01889); assay: as above
HLA-B*3801 (B38) (human) = assay: as above
HLA-B*4403 (B44) (human) = assay: as above
HLA-B*5001 (B50) (human) = assay: as above
HLA-B*5901 (B59) (human) [13] = assay: as above
[14] = target: HLA-Cw*0401 (Cw4) (human); assay: as above
[15] = target: HLA-Cw*1203 (Cw12) (human) (UniProt P10321); assay: as above
[16] = target: HLA-Cw*1502 (Cw15) (human); assay: as above
[17] = target: HLA-Cw*1701 (Cw17) (human); assay: as above

MFI (HLA-B*0801 (human)): 262 MFI | MFI (HLA-B*1402 (human)): 517 MFI | MFI (HLA-B*1801 (human)): 777 MFI | MFI (HLA-B*2708 (human)): 417 MFI | MFI (HLA-B*3701 (human)): 784 MFI | MFI (HLA-B*4002 (human)): 655 MFI | MFI (HLA-B*5101 (human)): 483 MFI | MFI (HLA-B*5201 (human)): 609 MFI | MFI (HLA-B*5801 (human)): 938 MFI | MFI (HLA-Cw*1402 (human)): 803 MFI | MFI (HLA-Cw*1701 (human)): 676 MFI | MFI (HLA-Cw*1802 (human)): 3810 MFI
Substance: murine monoclonal antibody (MAb) MEM-E/02

% inhibition (HLA-A*2501 (A25) (human) [1]): 36% | MFI (HLA-A*2901 (A29) (human) [2]): < 500 MFI | MFI (HLA-A*3002 (A30) (human)): < 500 MFI | MFI (HLA-A*3201 (A32) (human) [3]): < 500 MFI | MFI (HLA-B*2708 (B27) (human) [4]): 2430 MFI | % inhibition (HLA-B*5901 (B59) (human) [5]): 8% | MFI (HLA-B*5901 (B59) (human) [5]): 848 MFI | MFI [6]: < 500 MFI | MFI [7]: < 500 MFI | MFI [8]: < 500 MFI | MEM-E/02 Reactivity Rank (HLA-A*2403 (A24) (human)): 63 rank | MEM-E/02 Reactivity Rank (HLA-A*2501 (A25) (human) [9]): > 65 rank | MEM-E/02 Reactivity Rank (HLA-A*2601 (A26) (human)): 60 rank | MEM-E/02 Reactivity Rank (HLA-A*2901 (A29) (human) [10]): 48 rank | MEM-E/02 Reactivity Rank (HLA-A*3201 (A32) (human) [11]): > 65 rank | MEM-E/02 Reactivity Rank (HLA-B*0801 (B8) (human)): > 65 rank | MEM-E/02 Reactivity Rank (HLA-B*1401 (B64) (human)): 7 rank | MEM-E/02 Reactivity Rank (HLA-B*1513 (B77) (human)): 41 rank | MEM-E/02 Reactivity Rank (HLA-B*1516 (B63) (human)): 43 rank | MEM-E/02 Reactivity Rank (HLA-B*1801 (B18) (human)): 36 rank | MEM-E/02 Reactivity Rank (HLA-B*2708 (B27) (human) [12]): > 65 rank | MEM-E/02 Reactivity Rank (HLA-B*3801 (B38) (human)): > 65 rank | MEM-E/02 Reactivity Rank (HLA-B*4403 (B44) (human)): > 65 rank | MEM-E/02 Reactivity Rank (HLA-B*5001 (B50) (human)): > 65 rank | MEM-E/02 Reactivity Rank (HLA-B*5901 (B59) (human) [13]): 20 rank | MEM-E/02 Reactivity Rank [14]: > 65 rank | MEM-E/02 Reactivity Rank [15]: 36 rank | MEM-E/02 Reactivity Rank [16]: > 65 rank | MEM-E/02 Reactivity Rank [17]: 28 rank
Substance: murine monoclonal antibody MAb MEM-E/02
